Experiment [1] has as its target VP4 spike protein, unprocessed precursor, porcine rotavirus strain OSU (clone OSU-C5111) (porcine rotavirus strain OSU) (UniProt P11114). Description: cryo-EM structure; single-particle three-dimensional reconstruction with icosahedral symmetry of vitrified purified virions (NTR-TLP and TR-TLP of strains SA11 and OSU), 200 kV; virions assembled in infected MA104 cells and purified in CsCl gradients; 11.9-15.4 Å (FSC 0.3).

Experiment [2] deals with VP4 spike protein, unprocessed precursor, rotavirus strain SA11 (clone SA11-C4111) (simian rotavirus strain SA11). The experiment is described as above.

The stoichiometry N is the number of molecules, sites or subunits per partner or assembly. “VP4 spike protein, unprocessed precursor, porcine rotavirus strain OSU (clone OSU-C5111) (from UniProt P11114 1-776) (natural protein)” showed a stoichiometry N in experiment [1] of 3.
In experiment [2], “VP4 spike protein, unprocessed precursor, rotavirus strain SA11 (clone SA11-C4111) (natural protein)” displayed a stoichiometry N of 3.

The values are drawn from publication PMC4038622.
